Measured values published in PMC2174365.
Read-outs that look alike come from different tables or passages of the source.

Assays:
[1] = target: sea urchin sperm flagellar axonemes (sea urchin); assay: single-molecule fluorescence motility assay
[2] = target: sea urchin sperm flagellar axonemes (sea urchin); assay: single-molecule fluorescence motility assay; remark: listed apart in the source
[3] = target: sea urchin sperm flagellar axonemes (sea urchin); assay: single-molecule fluorescence motility assay; remark: listed apart in the source
[4] = target: microtubules (taxol-stabilized; polymer of alpha- and beta-tubulin)
[5] = target: sea urchin sperm flagellar axonemes (sea urchin); assay: optical trapping bead assay

Substance | Km(MT) of the microtubule-stimulated ATPase, NEM-modified control [4] [μM tubulin] | Km(MT) of the microtubule-stimulated ATPase, with 200 μM DTNB [4] [μM tubulin] | Km(MT) of the microtubule-stimulated ATPase, without DTNB [4] [μM tubulin] | further results
Cys337 Cys-light K560-GFP (neck coiled-coil mutant Ala337Cys) (from UniProt P33176 1-560) (domain or fragment) | – | – | – | association time [1]: 3.7 s
Cys337/Cys344 Cys-light K560-GFP (neck coiled-coil double mutant Ala337Cys/Tyr344Cys) (from UniProt P33176 1-560) (domain or fragment) | – | – | – | association time [2]: 2.5 s; association time [3]: 3.8 s
Cys330/Cys4 Cys-light K560-GFP (neck linker mutant Ser330Cys/Leu4Cys) (from UniProt P33176 1-560) (domain or fragment) | 0.45 | 2.35 | 0.57 | –
Cys334/Cys222 Cys-light K560-GFP (neck linker mutant Glu334Cys/Lys222Cys) (from UniProt P33176 1-560) (domain or fragment) | 1.51 | 2.36 | 0.62 | –
Cys344 Cys-light K560-GFP (neck coiled-coil mutant Tyr344Cys) (from UniProt P33176 1-560) (domain or fragment) | – | – | – | fold change of the dissociation rate under load (with DTNB against without DTNB) [5]: 1.2 fold; frequency of movement/binding [3]: 2 /min/μm/nM; frequency of movement/binding [1]: 2 /min/μm/nM
